In patent publication US20260167721A1 (ABLEXIS, published 2026):

Assays:
[1] = target: T1, recombinant human CD3 epsilon/delta heterodimer (human, UniProt P07766 23-126; P04234 22-105); assay: Octet BLI, mAb on FAB2G sensor, hCD3 E/D 200-50 nM; R^2 0.99
T1 construct: Recombinant protein in solution (200-50 nM) in the Octet assay; also called hCD3 E/D; human CD3E/D
T1 sequence (P07766 23-126, stated change not applied, chain 1 of 2): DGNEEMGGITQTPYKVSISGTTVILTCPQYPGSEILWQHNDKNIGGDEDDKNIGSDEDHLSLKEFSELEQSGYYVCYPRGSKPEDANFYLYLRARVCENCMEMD
T1 sequence (P04234 22-105, stated change not applied, chain 2 of 2): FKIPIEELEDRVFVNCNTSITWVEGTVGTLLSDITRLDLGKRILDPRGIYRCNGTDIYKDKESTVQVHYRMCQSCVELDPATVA

[2] = target: T2, recombinant human CD3 epsilon/gamma heterodimer (human, UniProt P07766 23-126; P09693 23-116); assay: Octet BLI, mAb on FAB2G sensor, hCD3 E/G 200-50 nM; R^2 0.99
T2 construct: Recombinant protein in solution (200-50 nM) in the Octet assay; also called hCD3 E/G
T2 sequence (P07766 23-126, chain 1 of 2): as the sequence (P07766 23-126, stated change not applied, chain 1 of 2) above
T2 sequence (P09693 23-116, chain 2 of 2): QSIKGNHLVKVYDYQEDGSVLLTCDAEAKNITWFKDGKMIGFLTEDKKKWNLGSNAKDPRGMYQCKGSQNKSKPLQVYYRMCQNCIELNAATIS

[3] = target: T3, recombinant human CD3 epsilon/gamma heterodimer (human, UniProt P07766 23-126; P09693 23-116); assay: BLI (Octet), mAb 5 ug/mL on FAB2G sensor, hCD3 E/G 200-50 nM;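 note: antibodies purified from hybridoma supernatants, measured by Octet binding to recombinant human CD3 protein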
T3 construct: Recombinant heterodimer used as analyte in Octet; also called hCD3 E/G
T3 sequence (P07766 23-126, chain 1 of 2): as the sequence (P07766 23-126, stated change not applied, chain 1 of 2) above
T3 sequence (P09693 23-116, chain 2 of 2): as the sequence (P09693 23-116, chain 2 of 2) above
Experimental: (§1) Samples were evaluated by flow cytometry analysis against Jurkat and human Pan-T cells (FIG. 1B) as well as by Octet against recombinant human CD3 proteins to evaluate apparent affinities and binding off-rates (Table 6, infra).

[4] = target: T4, recombinant human CD3 epsilon/delta heterodimer (human, UniProt P07766 23-126; P04234 22-105); assay: BLI (Octet), mAb 5 ug/mL on FAB2G sensor, hCD3 E/D 200-50 nM
T4 construct: Recombinant heterodimer used as analyte in Octet; also called hCD3 E/D; human CD3E/D
T4 sequence (P07766 23-126, stated change not applied, chain 1 of 2): as the sequence (P07766 23-126, stated change not applied, chain 1 of 2) above
T4 sequence (P04234 22-105, stated change not applied, chain 2 of 2): as the sequence (P04234 22-105, stated change not applied, chain 2 of 2) above
Experimental: as §1

Row | Binder | Kd [1] [nM] | Response [1] | koff [1] [s⁻¹] | kon [1] [M⁻¹ s⁻¹] | Kd [2] [nM] | Response [2] | koff [2] [s⁻¹] | kon [2] [M⁻¹ s⁻¹] | Kd [3] [nM] | Response [3] | koff [3] [s⁻¹] | kon [3] [M⁻¹ s⁻¹] | Kd [4] [nM] | Response [4] | koff [4] [s⁻¹] | kon [4] [M⁻¹ s⁻¹]
1 | ABL-CD3-3 (antibody, V domains shown, Chimeric hybridoma mAb: human V, CH1, upper hinge; mouse middle hinge, CH2, CH3) VH: EVQLVESGGGLVKPGGSLRLSCAASGFTFSSYSMNWVRQAPGKGLEWVSYISRSSNYIHYADSVKGRFTIFRDNAKNSLYLQMNSLRVEDTAVYYCARAERGSYAVDIWGQGTMVTVSS VL: not shown | 10.4 | 1.03 | 0.0012 | 116000 | 12.4 | 0.96 | 0.00143 | 115000 |  |  |  |  |  |  |  | 
2 | ABL-CD3-4 (antibody, V domains shown, Chimeric hybridoma mAb: human V, CH1, upper hinge; mouse middle hinge, CH2, CH3) VH: VQLVESGGGLVKPGGSLRLSCAASGFTFSSYNMNWVRQAPGKGLEWVSSISSSSSYIYYADSVKGRFTISRDNAKNSLYLQMNSLRAEDTAVFYCARAERGSYAFDIWGQGTMVTVSS VL: not shown | 94.5 | 0.32 | 0.0302 | 320000 | 91.9 | 0.36 | 0.0221 | 241000 |  |  |  |  |  |  |  | 
3 | ABL-CD3-79 (antibody, V domains shown, mAb purified from hybridoma; chimeric AlivaMab IgG (human VH, CH1 and upper hinge; mouse middle hinge, CH2, CH3; human light chain)) VH: EVQLVESGGGLVKPGGSLRLSCAASGFTVSNYSMNWVRQAPGKGLEWVSCISRSSSYIYYADSVKGRFTISRDNAKNSLFLQMNSLRAEDTAVYYCARERWELLYFDYWGQGTLVTVSS VL: QTVVTQEPSFSVSPGGTVTLTCGLSSGSVSTSYYPSWYQQTPGQAPRTLIYSTNTRSSGVPDRFSGSILGNKAALTITGAQADDESDYYCVLYMGSGIWVFGGGTKLTVL |  |  |  |  |  |  |  |  | 412 | 0.07 | 0.162 | 393000 | 120 | 0.22 | 0.0473 | 393000
4 | ABL-CD3-82 (antibody, V domains shown, mAb purified from hybridoma; chimeric AlivaMab IgG (human VH, CH1 and upper hinge; mouse middle hinge, CH2, CH3; human light chain)) VH: EVQLVESGGGLVKPGGSLRLSCAASGFTFSSYSMNWVRQAPGKGLEWVSSISSSSSYIYYADSVKGRFTISRDNAKNSLYLQMNSLRAEDTAVYYCARDRRELLLDYWGQGTLVTVSS VL: SYELTQPPSVSVSPGQTARITCSGDALPKKYAYWYQQKSGQAPVLVIYEDSKRPSGIPERFSGSSSGTMATLTISGAQVEDEADYYCYSTDSSGNHSWVFGGGTKLTVL |  |  |  |  |  |  |  |  | 3.18 | 0.02 | 0.00197 | 620000 | 10.6 | 0.02 | 0.00192 | 182000

Second part, the binder after the results:

Row | Kd [1] [nM] | Response [1] | koff [1] [s⁻¹] | kon [1] [M⁻¹ s⁻¹] | Kd [2] [nM] | Response [2] | koff [2] [s⁻¹] | kon [2] [M⁻¹ s⁻¹] | Kd [3] [nM] | Response [3] | koff [3] [s⁻¹] | kon [3] [M⁻¹ s⁻¹] | Kd [4] [nM] | Response [4] | koff [4] [s⁻¹] | kon [4] [M⁻¹ s⁻¹] | Binder
5 |  |  |  |  |  |  |  |  | < 0.001 | -0.01 | < 1e-07 | 50000 | < 0.001 | 0.01 | 0.0135 |  | ABL-CD3-77 (antibody, V domains shown, mAb purified from hybridoma; chimeric AlivaMab IgG (human VH, CH1 and upper hinge; mouse middle hinge, CH2, CH3; human light chain)) VH: EVQLVESGGGLVKPGGSLRLSCAASGFTFSSYSMNWVRQAPGKGLEWVSSISSSSSYIYYADSVKGRFTISRDNAKNSLYLQMNSLRAEDTAVYYCARDGELGIGTYFDYWGQGTLVTVSS VL: QSVLTQPPSVSGAPGQRVTISCTGSSSNIGAGYDVHWYQQLPGTAPKLLIYGNSNRPSGVPDRFSGSKSGTSASLAITGLQAEDEADYYCQSYDSSLSGSVFGGGTKLTVL
6 |  |  |  |  |  |  |  |  | 124 | 0.13 | 0.0609 | 492000 | 55.6 | 0.24 | 0.026 | 467000 | ABL-CD3-74 (antibody, V domains shown, mAb purified from hybridoma; chimeric AlivaMab IgG (human VH, CH1 and upper hinge; mouse middle hinge, CH2, CH3; human light chain)) VH: EVQLVESGGGLVKPGGSLRLSCAASGFTFSSYSMKWVRQAPGKGLEWVSSISSSSSYIYYADSVKGRFTISRDNAKNSLYLQMNSLRAEDTAVYYCARDRGELTLWYWGQGTLVTVSS VL: SYELTQPPSVSVSPGQTARITCSGDALPKKYAYWYQQKSGQAPVLVIYEDSKRPSGIPERFSGSSSGTMATLTISGAQVEDEADYYCYSTDSSGNHWVFGGGTKLTVL
7 |  |  |  |  |  |  |  |  | 148 | 0.11 | 0.036 | 243000 | 125 | 0.36 | 0.0108 | 86200 | ABL-CD3-80 (antibody, V domains shown, mAb purified from hybridoma; chimeric AlivaMab IgG (human VH, CH1 and upper hinge; mouse middle hinge, CH2, CH3; human light chain)) VH: EVQLVESGGGLVKPGGSLRLSCAASGFTFSGYSMNWVRQAPGKGLEWVSSISSRSRYIYYADSVQGRFTISRDNSKNSLFLQMNSLRAEDTAVYYCGRDWRELLLDYWGQGTLVTVSS VL: SYELTQPPSVSVSPGQTARITCSGDALPKKYAYWYQQKSGQAPVLVIYEDSKRPSGIPERFSGSSSGTMATLTISGAQVEDEADYYCYSTDSSGNHSWVFGGGTKLTVL
